Test [1] concerns the target T1, human neonatal Fc receptor (FcRn) (human, UniProt P55899 24-297; P61769 21-119, limits assumed).
T1 construct: Recombinant human FcRn; also called human FcRn; recombinant human neonatal receptor
Kind of test: SPR Biacore T200, 37 °C, pH 6.0. As for the experimental part:
(§1) Table 17 legend/description: Comparison of binding affinity of 28Y042-7F11-1 and mepolizumab for human FcRn at pH 6.0 and pH 7.4.
(§2) The binding affinity of 28Y042-7F11-1 and mepolizumab to human FcRn at pH 6.0 and pH 7.4 was assessed using a BIACORE T200 instrument at 37° C. Human recombinant IL-5 was diluted in acetate buffer pH 5.0 and immobilised to a level of 535 RU by amine coupling on to a CMS chip (GE, BR100530). 28Y042-7F11-1 or mepolizumab were captured by flowing (5 μl/min) a 100 nM solution of either mAb in HBS-EP (Teknova, H8022) buffer for 24 seconds over the chip surface. Following capture of the antibody via the immobilised IL-5, cycles of varying concentrations (0.5 μM to 32 μM) of human FcRn were flowed over the chip surface at 5 μ1/min for 120 seconds contact time followed by 80 seconds dissociation for each cycle. At the completion of each cycle, the chip surface was regenerated using 10 mM Glycine pH 1.5 for 5 seconds at 50 μ1/min followed by 10mM NaOH for 5 seconds at 50 μl/min. FcRn cycles were performed for each concentration at pH 6.0 (HBS-EP+, Teknova, Cat: H8022, pH 6.0) and pH 7.4 (HBS-EP). A molecular weight of 42929 Da for human FcRn was used in the calculations.
For orientation: In SPR one partner is held on a chip, and binding of the other changes the refractive index at the surface.

For test [2], the target named is T2, human IL-5 (recombinant) (human, UniProt P05113 20-134). Kind of test: cell-based or functional assay.
The target in test [3] is T1, human neonatal Fc receptor (FcRn). The experiment in a line: SPR Biacore T200, 37 °C, pH 6.0, antibody captured on immobilised IL-5, FcRn as analyte. As for the experimental part:
as §1, §2

Test [4] concerns the target T2, human IL-5 (recombinant). Kind of test: KinExA solution phase affinity, 25 °C. As for the experimental part: Kinetic analyses were performed to compare 28Y042-7F11-1, mepolizumab, and GSK3559090A (a comparator IgG1 anti-IL-5 mAb molecule based). Due to the high affinity of 28Y042-7F11-1, it was not possible to accurately determine the dissociation rate by Biacore 4000 at 25° C.; therefore KINEXA analysis was used to calculate an accurate affinity for 28Y042-7F11-1 binding to human IL-5 at 25° C.
Solution phase affinity measurements were made using Sapidyne's KINEXA 3200 instrument. The method relied on the detection of free antibody at equilibrium in a titrated series of antigen concentrations. For detection, a bead matrix was created using NHS-activated SEPHEROSE beads (GE Healthcare, 17-0906-01) coated with human IL-5. For affinity determination, a fixed concentration of antibody was incubated with a dilution series of human IL-5 concentrations and binding was allowed to reach equilibrium before the samples were run on the KINEXA 3200 instrument. Each solution was passed over an aliquot of the antigen beads where free antibody bound to the antigen coated beads and was detected using an anti-human IgG antibody (DYLIGHT 649-AFFINIPURE F(ab′)2 fragment goat anti-human IgG; Jackoson Immunoresearch, 109-496-170), with fresh antigen beads used to measure each sample.

The target of test [5] is T2, human IL-5 (recombinant). The experiment in a line: SPR Biacore T200, 37 °C.
In another test the target is T3, cynomolgus IL-5 (cynomolgus).
T3 construct: also called cyno IL-5
Kind of test: SPR Biacore T200, 37 °C.

Test [6] addresses T1, human neonatal Fc receptor (FcRn). Kind of test: ProteOn SPR, human FcRn, pH 6.0.
The target is the same in test [7]. The experiment in a line: ProteOn SPR, human FcRn, pH 7.4.
Test [8] shares this target. Kind of test: SPR Biacore T200, 37 °C, pH 7.4, antibody captured on immobilised IL-5, FcRn as analyte. As for the experimental part:
as §1, §2

For test [9], the target named is T4, human complement component C1q (human, UniProt P02745 23-245; P02746 28-253; P02747 29-245).
T4 construct: C1q from Sigma (C1740); also called human recombinant soluble complement C1q
The experiment in a line: ProteOn XPR36 SPR, antibody immobilised, C1q as analyte, equilibrium model. As for the experimental part:
Binding of 28Y042-7F11-1 to human recombinant soluble complement C1q was assessed using the PROTEOn XPR36 (BioRad™) biosensor instrument. A control antibody containing the YTE change to its Fc region was included as a control.
The antibodies to be tested were immobilised on a GLC chip (Bio-Rad, 176-5011) by primary amine coupling (GE Healthcare, BR-1000-50). Recombinant C1q (Sigma, C1740) was passed over the immobilised antibodies at 512 nM, 128 nM, 32 nM, 8 nM, 2 nM and 0 nM (i.e., buffer alone) and a blank activated and deactivated flow cell was used to double reference binding curves. The running buffer for binding analysis was HBS-EP (pH7.4, Teknova, H8022) with 10 mM CaCl₂. Data were fitted to the equilibrium model, inherent to the PROTEON XPR36 (BioRad™) analysis software using a global R-max value.

The target in test [10] is T1, human neonatal Fc receptor (FcRn). The experiment in a line: ProteOn SPR, human FcRn, pH 6.0. The source holds these as a separate data set.
The target in test [11] is T2, human IL-5 (recombinant). Kind of test: SPR Biacore 4000, 25 °C, antibody captured on protein A, human IL-5 as analyte.

T4 sequence (P02745 23-245 limits assumed, chain 1 of 3): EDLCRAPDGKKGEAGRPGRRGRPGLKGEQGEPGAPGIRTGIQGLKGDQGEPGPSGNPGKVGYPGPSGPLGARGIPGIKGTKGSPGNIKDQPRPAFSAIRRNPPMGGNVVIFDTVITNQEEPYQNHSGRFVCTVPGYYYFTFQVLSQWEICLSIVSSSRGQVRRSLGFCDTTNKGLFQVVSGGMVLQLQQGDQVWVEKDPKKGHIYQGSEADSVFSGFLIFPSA
T4 sequence (P02746 28-253 limits assumed, chain 2 of 3): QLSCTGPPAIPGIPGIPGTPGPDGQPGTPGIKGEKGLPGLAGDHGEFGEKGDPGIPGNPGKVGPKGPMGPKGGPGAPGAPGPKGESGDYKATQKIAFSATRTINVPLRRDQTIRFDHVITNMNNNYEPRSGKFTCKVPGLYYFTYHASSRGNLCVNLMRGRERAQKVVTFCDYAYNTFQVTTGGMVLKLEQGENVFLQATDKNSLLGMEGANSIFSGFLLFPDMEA
T4 sequence (P02747 29-245 limits assumed, chain 3 of 3): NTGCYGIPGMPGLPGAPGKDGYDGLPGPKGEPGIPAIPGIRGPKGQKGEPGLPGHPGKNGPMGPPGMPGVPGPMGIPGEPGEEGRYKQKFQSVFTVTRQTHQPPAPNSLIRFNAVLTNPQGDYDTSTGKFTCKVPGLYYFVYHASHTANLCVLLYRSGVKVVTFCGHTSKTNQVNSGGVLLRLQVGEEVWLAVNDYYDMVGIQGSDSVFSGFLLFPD

B1: 28Y042-7F11-1 (antibody, human IgG1, kappa)
heavy: QVTLRESGPALVKPTQTLTLTCTVSGFSLTGSSVHWVRQPPGKGLEWLGVIWASGGTDYNSALMSRLSISKDTSRNQVVLTMTNMDPVDTATYYCARDPPSGLLRLDYWGRGTLVTVSSASTKGPSVFPLAPSSKSTSGGTAALGCLVKDYFPEPVTVSWNSGALTSGVHTFPAVLQSSGLYSLSSVVTVPSSSLGTQTYICNVNHKPSNTKVDKRVEPKSCDKTHTCPPCPAPELLGGPSVFLFPPKPKDTLYITREPEVTCVVVDVSHEDPEVKFNWYVDGVEVHNAKTKPREEQYNSTYRVVSVLTVLHQDWLNGKEYKCKVSNKALPAPIEKTISKAKGQPREPQVYTLPPSREEMTKNQVSLTCLVKGFYPSDIAVEWESNGQPENNYKTTPPVLDSDGSFFLYSKLTVDKSRWQQGNVFSCSVMHEALHNHYTQKSLSLSPGK
light: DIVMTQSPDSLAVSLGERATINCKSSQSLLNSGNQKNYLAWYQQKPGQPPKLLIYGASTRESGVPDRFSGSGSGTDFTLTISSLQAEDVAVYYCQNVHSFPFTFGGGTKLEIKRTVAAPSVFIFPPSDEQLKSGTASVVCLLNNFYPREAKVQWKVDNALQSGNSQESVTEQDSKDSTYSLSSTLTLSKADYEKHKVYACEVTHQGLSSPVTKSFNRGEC
notes: Recombinant humanized monoclonal antibody, IgG1 kappa, two heavy and two light chains; also called GSK3511294
With B1, the “fold increase in affinity compared to mepolizumab” value in test [1] was approximately 13 fold. Besides, in the test with human IL-5 (recombinant) [2], the “IC50 in the TF-1 cell assay after thermal stress (1 week at 40 °C in acetate or phosphate buffer)” value is 0.004 to 0.005 nM. In addition, in the test with human IL-5 (recombinant) [2], the “IC50 of inhibition of human IL-5 induced TF-1 cell proliferation” value came to 0.004 nM. The “fold improvement in TF-1 cell assay potency compared to mepolizumab” value in the test with human IL-5 (recombinant) [2] was approximately 30 fold. Also, the Kd (as a rule, the constant that tells how readily two partners part at equilibrium) in test [3] came to 157 nM; with human IL-5 (recombinant) [4], 0.0105 nM; with human IL-5 (recombinant) [5], 0.0391 nM; with cynomolgus IL-5, 0.0239 nM; in [6], 130 nM; in test [7], 2650 nM. Further, the Kd in [8] was determined as 16200 nM; in [9], 750 nM. Further, the “fold increase in affinity compared to the human IgG1 wild type control” value in [10] was approximately 3 fold.

B2: mepolizumab (antibody)
chain 1: not shown
chain 2: not shown
On to B2, for which the “IC50 of inhibition of human IL-5 induced TF-1 cell proliferation” value in the test with human IL-5 (recombinant) [2] was determined as 0.105 nM. In addition, the Kd in test [3] came out at 2080 nM; with human IL-5 (recombinant) [11], 0.123 nM.

Values taken from patent publication US20210017269A1 (GlaxoSmithKline, published 2021).
